Numbering of substitutions follows the chain as printed. Names and notes keep the numbering of the source.
T1: recombinant human C1r2s2 tetramer (human, UniProt P09871 16-688; P00736 18-705)
T1 construct: C1s and C1r co-expressed in HEK293/FreeStyle 293-F and purified from conditioned medium
T1 chain 1: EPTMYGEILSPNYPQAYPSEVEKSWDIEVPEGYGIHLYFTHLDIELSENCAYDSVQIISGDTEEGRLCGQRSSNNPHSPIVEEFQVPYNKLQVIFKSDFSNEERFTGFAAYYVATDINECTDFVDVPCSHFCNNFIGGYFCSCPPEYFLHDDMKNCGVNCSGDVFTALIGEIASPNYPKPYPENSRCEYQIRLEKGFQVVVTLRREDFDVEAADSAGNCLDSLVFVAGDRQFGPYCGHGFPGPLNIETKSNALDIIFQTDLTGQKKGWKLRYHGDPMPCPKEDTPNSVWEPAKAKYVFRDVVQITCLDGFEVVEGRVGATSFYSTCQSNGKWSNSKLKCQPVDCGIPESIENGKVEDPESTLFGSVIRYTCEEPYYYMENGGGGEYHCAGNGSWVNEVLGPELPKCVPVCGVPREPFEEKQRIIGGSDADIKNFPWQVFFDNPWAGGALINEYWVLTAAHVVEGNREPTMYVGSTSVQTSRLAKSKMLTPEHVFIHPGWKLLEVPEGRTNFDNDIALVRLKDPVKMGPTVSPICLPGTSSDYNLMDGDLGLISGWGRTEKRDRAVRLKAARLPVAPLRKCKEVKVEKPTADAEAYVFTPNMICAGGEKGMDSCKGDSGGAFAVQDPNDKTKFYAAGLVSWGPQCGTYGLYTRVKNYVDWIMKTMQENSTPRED
T1 chain 2: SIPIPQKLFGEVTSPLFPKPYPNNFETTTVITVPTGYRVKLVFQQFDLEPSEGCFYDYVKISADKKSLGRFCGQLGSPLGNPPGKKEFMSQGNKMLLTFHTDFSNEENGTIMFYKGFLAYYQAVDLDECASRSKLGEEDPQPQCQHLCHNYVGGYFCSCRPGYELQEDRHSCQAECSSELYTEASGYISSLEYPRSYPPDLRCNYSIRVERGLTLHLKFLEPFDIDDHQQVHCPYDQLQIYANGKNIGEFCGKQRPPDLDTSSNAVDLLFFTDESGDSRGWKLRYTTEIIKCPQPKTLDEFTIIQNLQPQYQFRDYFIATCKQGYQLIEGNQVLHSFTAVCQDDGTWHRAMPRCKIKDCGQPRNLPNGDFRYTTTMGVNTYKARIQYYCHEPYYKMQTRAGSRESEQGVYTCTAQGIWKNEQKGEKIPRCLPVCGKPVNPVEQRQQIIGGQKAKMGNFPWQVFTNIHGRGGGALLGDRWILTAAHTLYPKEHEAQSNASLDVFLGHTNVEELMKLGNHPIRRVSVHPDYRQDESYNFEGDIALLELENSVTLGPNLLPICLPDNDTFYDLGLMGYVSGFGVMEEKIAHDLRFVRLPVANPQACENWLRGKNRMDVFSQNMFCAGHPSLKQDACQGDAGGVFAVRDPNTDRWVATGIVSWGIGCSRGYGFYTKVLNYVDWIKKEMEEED

B1: AL0465 (antibody, human IgG1, kappa, V domains shown)
VH: QVQLVESGGGVVQPGRSLRLSCAASGFTFSAYAMNWIRQPPGKGLEWIGLIYGSGSTFYASWAKGRVTISVDTSKNQFSLKLSSVTAADTAVYYCARGRSVNYNSDFHLWGQGTLVTVSS
VL: DIQMTQSPSSLSASVGDRVTITCQASQSLHDKKNLAWYQQKPGQPPKLLIYGASTLESGVPSRFSGSGSGTDFTLTISSLQPEDFATYYCQGEFSSSSADCNTFGQGTKVEIKR
notes: COS0637temp with VL C94S (Kabat), already in the VL entry
B2: AL0553 (antibody, human IgG1, kappa, V domains shown)
VH: B1 VH
VL: B1 VL with S96C, C101P
notes: COS0637temp with VL C95dP (Kabat), already in the VL entry
B3: AL0545 (antibody, human IgG1, kappa, V domains shown)
VH: B1 VH
VL: B1 VL with S96C, C101F
notes: COS0637temp with VL C95dF (Kabat), already in the VL entry
B4: AL0546 (antibody, human IgG1, kappa, V domains shown)
VH: B1 VH
VL: B1 VL with S96C, C101G
notes: COS0637temp with VL C95dG (Kabat), already in the VL entry
B5: AL0550 (antibody, human IgG1, kappa, V domains shown)
VH: B1 VH
VL: B1 VL with S96C, C101L
notes: COS0637temp with VL C95dL (Kabat), already in the VL entry
B6: AL0555 (antibody, human IgG1, kappa, V domains shown)
VH: B1 VH
VL: B1 VL with S96C, C101R
notes: COS0637temp with VL C95dR (Kabat), already in the VL entry
B7: AL0468 (antibody, human IgG1, kappa, V domains shown)
VH: B1 VH
VL: B1 VL with S96W
notes: COS0637temp with VL C94W (Kabat), already in the VL entry
B8: AL0739 (antibody, human IgG1, kappa, V domains shown)
VH: B1 VH
VL: B1 VL with S96V, C101L
notes: COS0637temp with VL C94V/C95dL (Kabat), already in the VL entry
B9: AL0469 (antibody, human IgG1, kappa, V domains shown)
VH: B1 VH
VL: B1 VL with S96Y
notes: COS0637temp with VL C94Y (Kabat), already in the VL entry
B10: AL0556 (antibody, human IgG1, kappa, V domains shown)
VH: B1 VH
VL: B1 VL with S96C, C101S
notes: COS0637temp with VL C95dS (Kabat), already in the VL entry
B11: AL0738 (antibody, human IgG1, kappa, V domains shown)
VH: B1 VH
VL: B1 VL with S96L, C101L
notes: COS0637temp with VL C94L/C95dL (Kabat), already in the VL entry
B12: AL0551 (antibody, human IgG1, kappa, V domains shown)
VH: B1 VH
VL: B1 VL with S96C, C101M
notes: COS0637temp with VL C95dM (Kabat), already in the VL entry
B13: AL0741 (antibody, human IgG1, kappa, V domains shown)
VH: B1 VH
VL: B1 VL with S96W, C101Q
notes: COS0637temp with VL C94W/C95dQ (Kabat), already in the VL entry
B14: AL0745 (antibody, human IgG1, kappa, V domains shown)
VH: B1 VH
VL: B1 VL with S96E, C101L
notes: COS0637temp with VL C94E/C95dL (Kabat), already in the VL entry
B15: AL0542 (antibody, human IgG1, kappa, V domains shown)
VH: B1 VH
VL: B1 VL with S96C, C101A
notes: COS0637temp with VL C95dA (Kabat), already in the VL entry
B16: AL0549 (antibody, human IgG1, kappa, V domains shown)
VH: B1 VH
VL: B1 VL with S96C, C101K
notes: COS0637temp with VL C95dK (Kabat), already in the VL entry
B17: AL0547 (antibody, human IgG1, kappa, V domains shown)
VH: B1 VH
VL: B1 VL with S96C, C101H
notes: COS0637temp with VL C95dH (Kabat), already in the VL entry
B18: AL0559 (antibody, human IgG1, kappa, V domains shown)
VH: B1 VH
VL: B1 VL with S96C, C101W
notes: COS0637temp with VL C95dW (Kabat), already in the VL entry
B19: AL0543 (antibody, human IgG1, kappa, V domains shown)
VH: B1 VH
VL: B1 VL with S96C, C101D
notes: COS0637temp with VL C95dD (Kabat), already in the VL entry
B20: AL0544 (antibody, human IgG1, kappa, V domains shown)
VH: B1 VH
VL: B1 VL with S96C, C101E
notes: COS0637temp with VL C95dE (Kabat), already in the VL entry
B21: AL0742 (antibody, human IgG1, kappa, V domains shown)
VH: B1 VH
VL: B1 VL with S96W, C101R
notes: COS0637temp with VL C94W/C95dR (Kabat), already in the VL entry
B22: AL0554 (antibody, human IgG1, kappa, V domains shown)
VH: B1 VH
VL: B1 VL with S96C, C101Q
notes: COS0637temp with VL C95dQ (Kabat), already in the VL entry
B23: AL0557 (antibody, human IgG1, kappa, V domains shown)
VH: B1 VH
VL: B1 VL with S96C, C101T
notes: COS0637temp with VL C95dT (Kabat), already in the VL entry
B24: AL0552 (antibody, human IgG1, kappa, V domains shown)
VH: B1 VH
VL: B1 VL with S96C, C101N
notes: COS0637temp with VL C95dN (Kabat), already in the VL entry
B25: AL0466 (antibody, human IgG1, kappa, V domains shown)
VH: B1 VH
VL: B1 VL with S96T
notes: COS0637temp with VL C94T (Kabat), already in the VL entry
B26: AL0560 (antibody, human IgG1, kappa, V domains shown)
VH: B1 VH
VL: B1 VL with S96C, C101Y
notes: COS0637temp with VL C95dY (Kabat), already in the VL entry
B27: AL0736 (antibody, human IgG1, kappa, V domains shown)
VH: B1 VH
VL: B1 VL with S96R, C101L
notes: COS0637temp with VL C94R/C95dL (Kabat), already in the VL entry
B28: AL0548 (antibody, human IgG1, kappa, V domains shown)
VH: B1 VH
VL: B1 VL with S96C, C101I
notes: COS0637temp with VL C95dI (Kabat), already in the VL entry
B29: AL0467 (antibody, human IgG1, kappa, V domains shown)
VH: B1 VH
VL: B1 VL with S96V
notes: COS0637temp with VL C94V (Kabat), already in the VL entry
B30: AL0558 (antibody, human IgG1, kappa, V domains shown)
VH: B1 VH
VL: B1 VL with S96C, C101V
notes: COS0637temp with VL C95dV (Kabat), already in the VL entry

Molecular target: T1, recombinant human C1r2s2 tetramer
Experiment: SPR (BIACORE), antibody captured by ProL, human C1r2s2 injected at 100 nM, pH 7.4, 37 C
Experimental: Analysis of interaction between antibody variants and the human C1r2s2 prepared as mentioned above was carried out at pH7.4, at 37 degrees C. using BIACORE® T200 instrument (GE Healthcare) or BIACORE® 4000 (GE Healthcare). ProL (BioVision) was immobilized onto a CM4 sensorchip using amine coupling kit (GE Healthcare) according to the recommended settings by GE Healthcare. Antibodies and analytes were diluted into the respective running buffers, ACES pH7.4 (20 mM ACES (N-(2-Acetamido)-2-aminoethanesulfonic acid), 150 mM NaCl, 1.2 mM CaCl2, 1 mg/ml bovine serum albumin (BSA), 1 mg/ml CMD (CM-Dextran sodium salt), 0.05% Tween® 20 (polysorbate 20), 0.005 w/v % NaN3). Each antibody was captured onto the sensor surface by ProL. Antibody capture levels were aimed at 200 resonance units (RU). Then, recombinant human C1r2s2 was injected at concentrations of 25 and 100 nM followed by dissociation at pH7.4. The surface was regenerated using 10 mM Glycine-HCl, pH1.5.

Binder | binding result
B1 | no binding (tested: 100 nM)
B2 | no binding (tested: 100 nM)
B3 | no binding (tested: 100 nM)
B4 | no binding (tested: 100 nM)
B5 | no binding (tested: 100 nM)
B6 | no binding (tested: 100 nM)
B7 | no binding (tested: 100 nM)
B8 | no binding (tested: 100 nM)
B9 | no binding (tested: 100 nM)
B10 | no binding (tested: 100 nM)
B11 | no binding (tested: 100 nM)
B12 | no binding (tested: 100 nM)
B13 | no binding (tested: 100 nM)
B14 | no binding (tested: 100 nM)
B15 | no binding (tested: 100 nM)
B16 | no binding (tested: 100 nM)
B17 | no binding (tested: 100 nM)
B18 | no binding (tested: 100 nM)
B19 | no binding (tested: 100 nM)
B20 | no binding (tested: 100 nM)
B21 | no binding (tested: 100 nM)
B22 | no binding (tested: 100 nM)
B23 | no binding (tested: 100 nM)
B24 | no binding (tested: 100 nM)
B25 | no binding (tested: 100 nM)
B26 | no binding (tested: 100 nM)
B27 | no binding (tested: 100 nM)
B28 | no binding (tested: 100 nM)
B29 | no binding (tested: 100 nM)
B30 | no binding (tested: 100 nM)
